This data set has as its system Escherichia coli TOP10. The experiment in a line: shrunken log2 fold change of peptide-encoding DNA abundance (4.5 h post-induction vs induction); higher = less antimicrobial activity (less host growth inhibition). As to conditions: time post-induction: 4.5 h; library: site-saturation at positions 5, 18, 19, 20.
RRIRYRPPRLPRPRPRPSRVPRP: the “shrunken log2 fold change” value is -0.115.
Take RRIRSRPPRLPRPRPRPCYDPRP: the “shrunken log2 fold change” value is -0.438.
In the case of RRIRTRPPRLPRPRPRPTMMPRP, the “shrunken log2 fold change” value is -0.14.
For RRIRRRPPRLPRPRPRPRPSPRP, the “shrunken log2 fold change” value was determined as 0.781.
As for RRIRRRPPRLPRPRPRPSQWPRP, the figure is 0.264.
For RRIRFRPPRLPRPRPRPFRFPRP the value was -0.129; for RRIRGRPPRLPRPRPRPMENPRP, 0.47; for RRIRHRPPRLPRPRPRPYRYPRP, -0.177.
For RRIRSRPPRLPRPRPRPHMEPRP, the “shrunken log2 fold change” value was -0.376.
For RRIRFRPPRLPRPRPRPRGSPRP the value was 0.432.
For RRIRLRPPRLPRPRPRPHIPPRP, the “shrunken log2 fold change” value was -0.664.
For the sequence RRIRNRPPRLPRPRPRPFMHPRP, the “shrunken log2 fold change” value is -0.142.
RRIRSRPPRLPRPRPRPVSTPRP: the “shrunken log2 fold change” value was -0.187.
For RRIRDRPPRLPRPRPRPSQCPRP the value was -0.034.
In the case of RRIRQRPPRLPRPRPRPYYEPRP, the “shrunken log2 fold change” value is -0.172.
For RRIRDRPPRLPRPRPRPLPVPRP the value was -0.421; for RRIRYRPPRLPRPRPRPCMYPRP, -0.101.
For RRIRARPPRLPRPRPRPHFMPRP, the “shrunken log2 fold change” value amounted to 0.787.
Take RRIRVRPPRLPRPRPRPKSAPRP: the “shrunken log2 fold change” value is 0.172.
As for RRIRKRPPRLPRPRPRPCKSPRP, the figure is -0.0499; as for RRIRPRPPRLPRPRPRPSGTPRP, 0.669.
Take RRIRCRPPRLPRPRPRPKGKPRP: the “shrunken log2 fold change” value was 0.328.
As to RRIRERPPRLPRPRPRPNYLPRP, the “shrunken log2 fold change” value is -0.0974.
For RRIRNRPPRLPRPRPRPDWRPRP the value was -0.158.
Consider RRIRKRPPRLPRPRPRPYRSPRP, for which the “shrunken log2 fold change” value worked out at 0.0428.
For RRIRSRPPRLPRPRPRPNPDPRP the value was -0.123.
With RRIRNRPPRLPRPRPRPDTTPRP, the “shrunken log2 fold change” value is -0.129.
For RRIRQRPPRLPRPRPRPKWNPRP the value was -0.216; for RRIRCRPPRLPRPRPRPLYIPRP, -0.882; for RRIRSRPPRLPRPRPRPHPYPRP, -0.807.
Turning to RRIRFRPPRLPRPRPRPPYPPRP, the “shrunken log2 fold change” value is -0.0265.
Consider RRIRHRPPRLPRPRPRPWIAPRP, for which the “shrunken log2 fold change” value came to 0.143.
As to RRIRHRPPRLPRPRPRPDKFPRP, the “shrunken log2 fold change” value is -0.16.
Turning to RRIRPRPPRLPRPRPRPIYTPRP, the “shrunken log2 fold change” value was -0.245.
As for RRIRNRPPRLPRPRPRPAENPRP, the figure is -0.0634; as for RRIRGRPPRLPRPRPRPTWKPRP, 0.847.
For RRIRHRPPRLPRPRPRPRYFPRP, the “shrunken log2 fold change” value is -0.439.
As for RRIRDRPPRLPRPRPRPDDLPRP, the figure is 0.00447; as for RRIRHRPPRLPRPRPRPSNFPRP, -0.108.
For the sequence RRIRERPPRLPRPRPRPNRQPRP, the “shrunken log2 fold change” value was 0.0895.
On to RRIRKRPPRLPRPRPRPQQFPRP, for which the “shrunken log2 fold change” value was -0.0324.
As for RRIRIRPPRLPRPRPRPWVWPRP, the figure is 0.414; as for RRIRIRPPRLPRPRPRPWDYPRP, -0.00975.
RRIRHRPPRLPRPRPRPIYDPRP: the “shrunken log2 fold change” value is -0.436.
For RRIRGRPPRLPRPRPRPFVIPRP, the “shrunken log2 fold change” value was determined as 0.215.
Consider RRIRARPPRLPRPRPRPFQTPRP, for which the “shrunken log2 fold change” value was -0.0176.
With RRIRCRPPRLPRPRPRPLGTPRP, the “shrunken log2 fold change” value was -0.583.
For RRIRSRPPRLPRPRPRPANMPRP the value was -0.289; for RRIRQRPPRLPRPRPRPWKKPRP, -0.000921.
As for RRIRYRPPRLPRPRPRPYTDPRP, the figure is -0.396.
On to RRIRCRPPRLPRPRPRPNMDPRP, for which the “shrunken log2 fold change” value is -0.431.
For RRIRKRPPRLPRPRPRPFRYPRP, the “shrunken log2 fold change” value is -0.0832.
Take RRIRGRPPRLPRPRPRPSQCPRP: the “shrunken log2 fold change” value is -0.165.
For RRIRFRPPRLPRPRPRPRTTPRP, the “shrunken log2 fold change” value amounted to 0.299.
In the case of RRIRDRPPRLPRPRPRPVIGPRP, the “shrunken log2 fold change” value is 0.16.
Take RRIRDRPPRLPRPRPRPDQRPRP: the “shrunken log2 fold change” value is -0.00174.
Take RRIRFRPPRLPRPRPRPIWLPRP: the “shrunken log2 fold change” value is -0.17.
Regarding RRIRERPPRLPRPRPRPRCTPRP, the “shrunken log2 fold change” value is -0.0287.
With RRIRDRPPRLPRPRPRPWPFPRP, the “shrunken log2 fold change” value came to 0.0405.
With RRIRVRPPRLPRPRPRPWELPRP, the “shrunken log2 fold change” value is -0.487.
As to RRIRIRPPRLPRPRPRPTTTPRP, the “shrunken log2 fold change” value was -0.00987.
RRIRERPPRLPRPRPRPRIQPRP: the “shrunken log2 fold change” value is -0.362.
For the sequence RRIRVRPPRLPRPRPRPTWNPRP, the “shrunken log2 fold change” value stood at 0.13.
Take RRIRTRPPRLPRPRPRPQTIPRP: the “shrunken log2 fold change” value is -0.717.
In the case of RRIRLRPPRLPRPRPRPAYCPRP, the “shrunken log2 fold change” value is -0.088.
Consider RRIRGRPPRLPRPRPRPKCGPRP, for which the “shrunken log2 fold change” value worked out at 0.814.
On to RRIRNRPPRLPRPRPRPLEFPRP, for which the “shrunken log2 fold change” value is -0.109.
With RRIRKRPPRLPRPRPRPVIMPRP, the “shrunken log2 fold change” value was 0.137.
For RRIRGRPPRLPRPRPRPDIRPRP the value was 0.454; for RRIRTRPPRLPRPRPRPKCTPRP, -0.0569; for RRIRARPPRLPRPRPRPYTCPRP, -0.0591.
Consider RRIRARPPRLPRPRPRPKTAPRP, for which the “shrunken log2 fold change” value turned out to be 0.0481.
Take RRIRHRPPRLPRPRPRPWVGPRP: the “shrunken log2 fold change” value amounted to 0.0323.
RRIRGRPPRLPRPRPRPATSPRP: the “shrunken log2 fold change” value was determined as 0.914.
Regarding RRIRRRPPRLPRPRPRPLNVPRP, the “shrunken log2 fold change” value is -0.0701.
For RRIRLRPPRLPRPRPRPLWHPRP the value was 0.0621; for RRIRFRPPRLPRPRPRPYWQPRP, -0.9.
For the sequence RRIRLRPPRLPRPRPRPSSGPRP, the “shrunken log2 fold change” value is 0.131.
For RRIRLRPPRLPRPRPRPIKPPRP the value was 0.0261; for RRIRSRPPRLPRPRPRPKEVPRP, -0.00238; for RRIRTRPPRLPRPRPRPFSIPRP, -0.284.
On to RRIRARPPRLPRPRPRPTDHPRP, for which the “shrunken log2 fold change” value was determined as 0.0934.
On to RRIRIRPPRLPRPRPRPCFAPRP, for which the “shrunken log2 fold change” value is -0.1.
With RRIRCRPPRLPRPRPRPDQFPRP, the “shrunken log2 fold change” value came out at 0.07.
Take RRIRPRPPRLPRPRPRPLAPPRP: the “shrunken log2 fold change” value amounted to 0.33.
Turning to RRIRDRPPRLPRPRPRPCYWPRP, the “shrunken log2 fold change” value stood at 0.00776.
Consider RRIRLRPPRLPRPRPRPFFGPRP, for which the “shrunken log2 fold change” value amounted to 0.246.
With RRIRVRPPRLPRPRPRPSHQPRP, the “shrunken log2 fold change” value turned out to be 0.0669.
With RRIRMRPPRLPRPRPRPSVWPRP, the “shrunken log2 fold change” value came out at 0.275.
On to RRIRQRPPRLPRPRPRPEWKPRP, for which the “shrunken log2 fold change” value is -0.00192.
As to RRIRDRPPRLPRPRPRPSETPRP, the “shrunken log2 fold change” value was -0.0751.
As for RRIRARPPRLPRPRPRPARYPRP, the “shrunken log2 fold change” value is 0.12.
Consider RRIRARPPRLPRPRPRPHQVPRP, for which the “shrunken log2 fold change” value was -0.17.
As for RRIRCRPPRLPRPRPRPGMPPRP, the figure is -0.257; as for RRIRVRPPRLPRPRPRPVQFPRP, -0.488.
With RRIRHRPPRLPRPRPRPSWCPRP, the “shrunken log2 fold change” value is -0.453.
As for RRIRQRPPRLPRPRPRPIGFPRP, the “shrunken log2 fold change” value is -0.0702.
Take RRIRARPPRLPRPRPRPPAIPRP: the “shrunken log2 fold change” value was 0.382.
RRIRQRPPRLPRPRPRPGDPPRP: the “shrunken log2 fold change” value was determined as 0.0572.
In the case of RRIRKRPPRLPRPRPRPKHRPRP, the “shrunken log2 fold change” value is 0.237.
For RRIRMRPPRLPRPRPRPFLPPRP the value was -0.346; for RRIRLRPPRLPRPRPRPGNAPRP, 0.0676.
For RRIRLRPPRLPRPRPRPQKEPRP, the “shrunken log2 fold change” value was determined as 0.0466.
Turning to RRIRMRPPRLPRPRPRPEYDPRP, the “shrunken log2 fold change” value was found to be 2.81.
Regarding RRIRPRPPRLPRPRPRPACGPRP, the “shrunken log2 fold change” value stood at 0.839.
With RRIRYRPPRLPRPRPRPLYVPRP, the “shrunken log2 fold change” value was -0.465.
In the case of RRIRKRPPRLPRPRPRPEPDPRP, the “shrunken log2 fold change” value worked out at 0.877.
Consider RRIRGRPPRLPRPRPRPVYMPRP, for which the “shrunken log2 fold change” value turned out to be 0.361.
On to RRIRIRPPRLPRPRPRPNCWPRP, for which the “shrunken log2 fold change” value was 0.0114.
For the sequence RRIRSRPPRLPRPRPRPPLHPRP, the “shrunken log2 fold change” value was -0.00448.
As to RRIRTRPPRLPRPRPRPTLWPRP, the “shrunken log2 fold change” value was 0.475.
As for RRIRSRPPRLPRPRPRPGPCPRP, the figure is 0.0781.
On to RRIRARPPRLPRPRPRPHILPRP, for which the “shrunken log2 fold change” value is -0.207.
For RRIRRRPPRLPRPRPRPYDHPRP the value was -0.149; for RRIRIRPPRLPRPRPRPMWVPRP, -0.11.
For RRIRHRPPRLPRPRPRPQPAPRP the value was -0.0767.
Consider RRIRARPPRLPRPRPRPVTCPRP, for which the “shrunken log2 fold change” value stood at 0.0514.
As to RRIRFRPPRLPRPRPRPLGIPRP, the “shrunken log2 fold change” value is -0.869.
As for RRIRFRPPRLPRPRPRPSLDPRP, the “shrunken log2 fold change” value was -0.296.
As to RRIRHRPPRLPRPRPRPVDKPRP, the “shrunken log2 fold change” value was -0.308.
With RRIRHRPPRLPRPRPRPCDAPRP, the “shrunken log2 fold change” value is -0.0305.
RRIRRRPPRLPRPRPRPIMAPRP: the “shrunken log2 fold change” value amounted to 0.107.
As for RRIRWRPPRLPRPRPRPFATPRP, the figure is 0.834.
For RRIRHRPPRLPRPRPRPWRFPRP the value was 0.0342; for RRIRCRPPRLPRPRPRPLHLPRP, -0.302.

Values taken from the supplement of paper PMC9112550, “Optimization of the antimicrobial peptide Bac7 by deep mutational scanning” (BMC Biology, 2022).
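Further: peptides expressed intracellularly from a pBAD plasmid library in pooled LB shake-flask culture, induced with 0.3% L-arabinose, DNA abundance read by NGS, three biological replicates, DESeq2 with apeglm shrinkage.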
